Here are results for two molecules from patent US20230140976A1 (OREGON HEALTH AND SCIENCE UNIVERSITY, published 2023).

The target in assay [1] is T1, dog dystroglycan (DG) (MDCK cells) (dog, UniProt Q9TSZ6 28-892).
T1 construct: whole, on cells; also called dog DG
T1 sequence (looked up): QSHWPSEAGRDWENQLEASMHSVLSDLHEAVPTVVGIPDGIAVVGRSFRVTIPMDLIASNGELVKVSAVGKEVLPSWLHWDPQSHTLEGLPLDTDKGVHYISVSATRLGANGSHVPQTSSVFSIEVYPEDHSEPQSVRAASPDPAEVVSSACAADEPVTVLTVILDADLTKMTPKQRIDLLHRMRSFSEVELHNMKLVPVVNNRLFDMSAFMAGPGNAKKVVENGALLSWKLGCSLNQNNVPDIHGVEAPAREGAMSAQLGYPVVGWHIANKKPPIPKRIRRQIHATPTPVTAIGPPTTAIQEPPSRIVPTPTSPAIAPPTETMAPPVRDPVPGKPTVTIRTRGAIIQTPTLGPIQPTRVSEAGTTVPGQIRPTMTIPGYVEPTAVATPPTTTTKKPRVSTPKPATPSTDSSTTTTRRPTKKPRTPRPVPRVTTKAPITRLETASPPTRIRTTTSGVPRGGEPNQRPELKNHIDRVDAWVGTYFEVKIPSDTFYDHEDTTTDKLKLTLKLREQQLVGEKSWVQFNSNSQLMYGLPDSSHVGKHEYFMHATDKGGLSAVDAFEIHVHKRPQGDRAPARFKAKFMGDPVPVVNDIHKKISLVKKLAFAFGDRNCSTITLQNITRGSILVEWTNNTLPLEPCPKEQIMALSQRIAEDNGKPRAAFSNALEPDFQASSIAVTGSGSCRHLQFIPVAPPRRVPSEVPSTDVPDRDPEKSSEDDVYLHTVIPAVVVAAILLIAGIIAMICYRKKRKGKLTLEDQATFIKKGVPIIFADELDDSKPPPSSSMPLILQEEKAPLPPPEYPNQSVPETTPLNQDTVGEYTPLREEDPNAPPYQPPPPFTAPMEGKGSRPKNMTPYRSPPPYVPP
The experiment in a line: not described; MDCK cells.

The target of assay [2] is T2, human dystroglycan (DG) heterodimer of α-DG and β-DG (human, UniProt Q14118 30-653; Q14118 654-895, variable O- and N-glycosylation of α-DG (sites listed in paragraph 55)).
T2 construct: In the immunoprecipitations it came from lysates of surface-biotinylated cells; also called DAG1; Dystrophin-Associated Glycoprotein 1
T2 sequence 1: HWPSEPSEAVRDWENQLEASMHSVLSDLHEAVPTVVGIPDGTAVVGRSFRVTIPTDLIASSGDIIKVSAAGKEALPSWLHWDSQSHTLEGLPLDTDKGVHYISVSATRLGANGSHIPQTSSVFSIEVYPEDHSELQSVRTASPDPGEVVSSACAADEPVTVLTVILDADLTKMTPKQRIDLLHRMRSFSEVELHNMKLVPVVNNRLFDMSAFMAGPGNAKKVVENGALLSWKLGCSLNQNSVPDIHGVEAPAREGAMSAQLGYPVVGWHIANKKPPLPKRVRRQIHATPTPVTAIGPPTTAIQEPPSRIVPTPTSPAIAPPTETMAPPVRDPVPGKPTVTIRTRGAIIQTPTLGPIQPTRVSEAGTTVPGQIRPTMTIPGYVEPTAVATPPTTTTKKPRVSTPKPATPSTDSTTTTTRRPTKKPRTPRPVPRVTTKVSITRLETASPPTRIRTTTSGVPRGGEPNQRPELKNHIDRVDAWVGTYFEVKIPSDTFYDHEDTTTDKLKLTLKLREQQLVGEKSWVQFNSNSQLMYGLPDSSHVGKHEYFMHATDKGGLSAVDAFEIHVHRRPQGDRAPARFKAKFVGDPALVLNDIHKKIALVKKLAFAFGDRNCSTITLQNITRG
T2 sequence 2: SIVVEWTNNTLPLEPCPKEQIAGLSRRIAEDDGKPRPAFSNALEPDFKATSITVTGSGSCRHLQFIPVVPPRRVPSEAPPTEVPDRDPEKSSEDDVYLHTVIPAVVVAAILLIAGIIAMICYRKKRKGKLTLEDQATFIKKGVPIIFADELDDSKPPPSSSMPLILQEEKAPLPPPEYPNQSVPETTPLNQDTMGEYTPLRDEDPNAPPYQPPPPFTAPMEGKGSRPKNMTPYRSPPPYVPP
The experiment in a line: live-cell immunofluorescence on UMUC3, UMUC5, UMUC9 and UMUC10.

Assay [3] concerns the target T2, human dystroglycan (DG) heterodimer of …. The experiment in a line: live-cell immunofluorescence on co-cultured MEpG cells with and without human DG (FIG. 3). As for the experimental part:
Example 2. Screening for antibodies of interest by live cell binding and internalization. Antibody activity was measured as binding to the surface of living cells expressing the human DG protein (“positive” cells) but not to negative controls (cells derived from an engineered conditional DG knockout mouse lacking human DG expression). The positive population was the same cell line used for immunization, MEpG cells expressing the human DG protein. The negative population was the murine MEpG line expressing green fluorescent protein (GFP) and not the human DG protein, created as previously described in Oppizzi et al., Traffic, 9(12): 2063-2072, 2008. The positive and negative populations were co-cultured in wells of Ibidi 96-well micro-plates (Ibidi, catalog #89626) and distinguishable by GFP expression. Hybridoma supernatants to be tested were diluted 1:1 with plain DMEM:F12 cell culture medium (Gibco) and added to cell-containing wells of the 96-well Ibidi plates. Each well was incubated for 60 minutes at 37° C. with the hybridoma supernatants to be tested, washed with DMEM:F12 medium, and incubated 30 minutes at 37° C. with an anti-mouse secondary antibody conjugated to the Alexa-568 fluorescent dye (Jackson Immunochemicals) diluted 1:1000 in DMEM:F12 medium. […]

B1: monoclonal antibody from hybridoma DG4H4 (ATCC Patent Deposit No. PTA-126594) (antibody, V domains shown)
VH: QVTLKESGPGILKPSQTLSLTCSFSGFSLSTSGMGVGWIRQPSGKGLEWLAHIWWDDDKYYNPSLKSQLTISKDTSRNQVFLKITSVDTADTATYYCARRAYYYGSSYPMDYWGQGTSVTVSS
VL: DIVLTQSPTSLAVSLGQRATFSCKASQSVDYDGDSYMNWYQQKPGQPPKLLIYAASNLDSGIPARFSGSGSGTDFTLNIHPVEEEDAATYYCQQSNEDPLTFGAGTKLELKR
notes: Mouse monoclonal antibody (Balb/c hybridoma); also called lane F
On to B1, for which the binding result is given as “no binding” in assay [1] and “binds” in assay [2].

B2: monoclonal antibody from hybridoma DG1A11 (ATCC Patent Deposit No. PTA-126595) (antibody, V domains shown)
VH: DVQLQESGPGLVKPSQSLSLTCTVTDYAITSDYAWNWIRQFPGNKLEWMGYISYSGSTSYSSSLKSRISITRDTSKNQFFLQLNSVTPEDTATYYCARAAPFTTLTDFFDYWGQGTTLTVSS
VL: DIVMTQSHKFMSTSVGDRVTITCKASQDVTTAVAWYQQKPGQSPKLLIYWASSRHTGVPDRFTGSGSGTDYTLTISSVQAEDLALYYCQQHYSTPYTFGGGTKLEIKR
notes: Mouse monoclonal antibody (Balb/c hybridoma); Tested as hybridoma supernatant or purified antibody; also called Antibody A; lane A
B2: the results for the binding result in assay [1] and in assay [3] were “no binding” and “binds”, respectively.
